Experimental data published in paper doi:10.1101/701797 (bioRxiv, 2019).
Values joined by “and” are separate entries in the source; they are usually repeats but may differ in a detail not shown here. Equal values may be shown once.

B1: wild-type phospholamban (natural protein, dog, UniProt P61012 1-52, looked up)
chain: MDKVQYLTRSAIRRASTIEMPQQARQNLQNLFINFCLILICLLLICIIVMLL
B2: C41L-PLB (natural protein, dog, UniProt P61012 1-52, looked up)
chain: MDKVQYLTRSAIRRASTIEMPQQARQNLQNLFINFCLILILLLLICIIVMLL
B3: I48A mutant of C41L-PLB (natural protein, dog, UniProt P61012 1-52, looked up)
chain: MDKVQYLTRSAIRRASTIEMPQQARQNLQNLFINFCLILILLLLICIAVMLL
B4: I38A mutant of C41L-PLB (natural protein, dog, UniProt P61012 1-52, looked up)
chain: MDKVQYLTRSAIRRASTIEMPQQARQNLQNLFINFCLALILLLLICIIVMLL
B5: L42A mutant of C41L-PLB (natural protein, dog, UniProt P61012 1-52, looked up)
chain: MDKVQYLTRSAIRRASTIEMPQQARQNLQNLFINFCLILILALLICIIVMLL
B6: L39A mutant of C41L-PLB (natural protein, dog, UniProt P61012 1-52, looked up)
chain: MDKVQYLTRSAIRRASTIEMPQQARQNLQNLFINFCLIAILLLLICIIVMLL

Assays:
[1] = target: the molecule itself; assay: SDS-PAGE oligomerization assay
[2] = target: the molecule itself; assay: SDS-PAGE oligomerization assay; remark: listed apart in the source
[3] = target: the molecule itself; assay: SDS-PAGE oligomerization assay with immunoblot

Protein | stoichiometry N [1] | stoichiometry N [2] | stoichiometry N [3]
B1 | > 6 | 5 | 2 and 4 and ~6
B2 | – | – | 4
B3 | – | – | 5
B4 | – | – | 4
B5 | – | – | 4
B6 | – | – | 4
